Substitutions are numbered along the chain they refer to. Names may count otherwise. “Also recorded” adds a separate entry of the source.
Tests used:
[1] = test system: K3-CHO and Park8-SH-SY5Y cells expressing human Parkin; assay: Parkin cleavage during cellular apoptosis, induction verified by PARP immunoblot, in Parkin expressing cell lines; assay type: cell-based
Source text: Parkin cleavage during cellular apoptosis. […] Lanes 1-4, 6 were probed with T160, lane 5 with PAR-N1 and lane 7 with PAR-C1. The molecular weight is indicated to the left for Parkin (51 kDa) and the Parkin peptides (38 kDa and 11,5 kDa, respectively). The induction of apoptosis was verified biochemically by testing the binding of the same membranes with the mouse monoclonal poly-ADP-ribose (PARP) antibody 66401 A (Pharmigen). […] The generation of the 86 kDa PARP fragment is a recognised marker for apoptosis associated proteolysis.
The stably transfected Parkin expressing cell lines, K3-CHO (FIG. 3, lanes 1-5) and Park8-SH-SY5Y (FIG. 3, lanes 6, 7) were extracted and prepared for immunoblotting as described in example 2. […] FIG. 3, lanes 1-4, 6 were probed with T160, lane 5 with PAR-N1 and lane 7 with PAR-C1 antibodies. The molecular weight is indicated to the left for Parkin (51 kDa) and the Parkin peptides (38 kDa and 11,5 kDa, respectively). […]

[2] = test system: apoptosis-associated Parkin cleavage in K3 CHO cells expressing human Parkin; assay: Caspase inhibitors on okadaic acid-induced, apoptosis-associated Parkin cleavage in K3 CHO cells (T160 immunoblot); assay type: cell-based, Chinese hamster; conditions: 10 microM inhibitor, 200 nM okadaic acid for 16 h
Protocol: K3 CHO cells were treated with 200 nM okadaic acid for 16 h (lanes 2-4) in the presence of 10 microM of the caspase inhibitors YVAD-chloromethylketone (lane 3) and DEVD-chloromethylketone (lane 4). The control cells treated with the DMSO used for solubilising the caspase inhibitors are shown in lane 2. Lane 1 represents non-treated control cells. […] Similar data was obtained in the Park8 SH-SY5Y cells.
The parental cell lines and the Parkin expressing cell lines were extracted in 8 M urea, 1% Triton X 100.20 microgram protein was supplemented to 2% sodium dodecylsulphate, 20 mM dithioerythreitol, 20 mM Tris, pH 6.5, 20% glycerol, heated to 95° C. for 5 min, whereafter the mixture was resolved by 10-20% gradient sodium dodecylsulphate polyacrylamide gelelectrophoresis. The proteins in the gel were electroblotted onto a nitrocellulose membrane and non-specific protein binding was blocked by incubating the membrane in block solution (20 mM Tris, pH 7.4, 130 mM NaCl, 0.5% Triton X100, 5% skimmed milk powder) for 2 hours. The membrane was subsequently incubated with primary antibody (PAR-N1, PAR-C1 and T160 diluted 1/500 in block solution) for 2 hours, rinsed in 20 mM Tris, pH 7.4, 130 mM NaCl, 0.5% Triton X100 and incubated with a second antibody (horse radish peroxidase conjugated swine anti rabbit serum) for 1 hour and rinsed. The bound antibody was then visualised by chemilumenescense according to the manufacturers recommendation (ECL, Amersham Pharmacia Biotech). FIG. 2 panel B, lanes 1 and 5 represent the non-transfected CHO and SH-SY5Y cell lines, respectively. FIG. 2, panel B, lanes 24 represents Parkin expressing CHO cells K3 and lane 6 represents the Parkin expressing SH-SY5Y cell Park 8. Lanes 1, 2, 5 and 6 were incubated with T160, lane 3 with PAR-Ni and lane 4 with PAR-C1. The molecular size marker is indicated to the left in kDa.
K3-CHO cells were treated with 200 nM okadaic acid for 16 h prior to extraction and processing for T160 immunoblot as described in example 2. […]

[3] = test system: apoptosis-associated (caspase) cleavage of human Parkin; assay: Site directed mutagenesis of Parkin Asp residues: apoptosis-associated cleavage in stably transfected CHO and SH-SY5Y cell lines (T160 immunoblot); assay type: cell-based; conditions: 200 nanoM okadaic acid for 16 h
Source text: Site directed mutagenesis of […] 126 in parkin to a glutamate residue reduce the apoptosis associated cleavage of parkin. Caspases are proteinases that always cleave after an Asp residue and FIG. 3 indicated the cleavage takes place within the N-terminal 150 amino acid residues. We mutagenised the parkin expression vector to express human parkin where the Asp in the positions 86 plus 87,106, 115, 126 and 130 were substituted with and Glu. CHO and SHSY5Y cell lines were stably transfected with the expression vectors and used for testing the effect of the mutations on apoptosis-associated parkin cleavage. These cells and the cell lines expressing the normal Parkin were treated with 200 nanoM okadaic acid for 16 h and extracted for T160 immunoblotting. The CHO cell lines are represented in lanes 1-6 and the SH-SY5Y cell lines in lanes 7-12. Wild type Parkin is represented in lanes 1, 2, 7, 8; D126E in lanes 3, 4, 9, 10; D130E in lanes 5, 6, 11, 12. Lanes 1, 3, 5, 7, 9, 11 represent untreated cells and lanes 2, 4, 6, 8, 10, 12 represent okadaic treated cells. The positions of the 51 kDa and 38 kDa Parkin proteins are indicated by the upper and lower left arrows.
Caspases are proteinases that always cleave after an Asp residue. Cell lines were generated where Asp residues were changed to Glu residues to test if this amino acid position might represent the caspase cleavage sites. The Parkin expression vector used for generating the Parkin expressing K3 CHO and Park8 SH-SY5Y cell lines was changed by PCR mediated site directed mutagenesis so the nucleotide No.479 was changed from a cytosine to an adenine (ParkinD126E). The cDNA encoding Parkin was kindly provided by Dr. Mizuno, Juntendo University School of Medicine, Japan. The Parkin cDNA was PCR amplified using the primers: […]
The amplified Parkin cDNA was cloned into the Nhe I and EcoR I site of the pcDNA3.1/Zeo(−) vector and the Parkin cDNA sequence was checked by sequencing. To prepare the D126E mutant, the inventors performed site-directed mutagenesis using the Quickchange Mutagenesis Kit (Stratagene) according to the manufactures instructions. Complementary strands of the oligonucleotide: 5′-[…]-3′ were used for preparing the D126E mutated construct. Parkin vectors containing Parkin mutated for D130E and DD86, 87EE were constructed by analogous techniques. This vector was then transfected into SH-SYSY or CHO cells using FUGENE6 (Boehringer Mannheim) and stably transfected cell lines were selected using 25 microgram Zeocinl ml medium (SH-SY5Y cells) or 300 microgram Zeocin/ml medium (CHO cells). The sequences of the vectors were verified by DNA sequencing. The expression vectors were used to generate the stably transfected DD86, 87EE, D126E and D130E CHO and SH-SY5Y cell lines expressing Parkin protein with the indicated substitutions of amino acids. These cells and the cell lines expressing the normal Parkin were treated with 200 nanoM okadaic acid for 16 h and extracted for T160 immunoblotting. The CHO cell lines are represented in lanes FIG. 5, 1-6 and the SH-SY5Y cell lines in lanes 7-12. Wild type Parkin is represented in lanes 1, 2, 7, 8; D126E in lanes 3, 4, 9, 10; D130E in lanes 5, 6, 11, 12. Lanes 1, 3, 5, 7, 9, 11 represent untreated cells and lanes 2, 4, 6, 8, 10, 12 represent okadaic treated cells. The positions of the 51 kDa and 38 kDa Parkin proteins are indicated by the upper and lower left arrows.

[4] = test system: CHO and SH-SY5Y cell lines; assay: Cytoprotection against mercaptoethanol-induced unfolded protein stress (DAPI count of dead cells); assay type: cell-based; conditions: 3 mM mercaptoethanol for 24h
Protocol: Mercaptoethanol is a known inducer of unfolded protein stress by inhibiting the normal formation of disulfide bonds in the endoplasmic reticulum.
CHO and SH-SY5Y cell lines were cultured expressing wild type Parkin, D126E Parkin and an empty vector with 3 mM mercaptoethanol for 24h. They were stained with DNA binding fluorescent dye DAPI and fixed in ice cold methanol prior to drying.

[5] = test system: CHO and SH-SY5Y cell lines; conditions: cell death induced by 3 mM mercaptoethanol; Imai et al. 2000, FIG. 4A; cited from earlier work

Molecule: C=C1[C@@H](O)[C@@H]2O[C@]3(CC[C@H](/C=C/[C@@H](C)[C@@H]4CC(C)=C[C@@]5(O[C@H](C[C@@](C)(O)C(=O)O)CC[C@H]5O)O4)O3)CC[C@H]2O[C@@H]1[C@@H](O)C[C@H](C)[C@H]1O[C@@]2(CCCCO2)CC[C@H]1C [okadaic acid]
- Induction of apoptosis (generation of caspase 3 generated 86 kDa PARP fragment) ([1]; 200 nM for 16 hours): 86 kDa fragment was generated

Molecule: DEVD-chloromethylketone
- Effect on apoptosis-associated Parkin cleavage (51 kDa Parkin to 38 kDa fragment) [2]: abrogate the cleavage; also recorded: cleavage is abrogated

Molecule: CC[C@@]1(O)C(=O)OCc2c1cc1n(c2=O)Cc2cc3ccccc3nc2-1 [campthotecin]
- Induction of apoptosis (generation of caspase 3 generated 86 kDa PARP fragment) ([1]; 5 microgram/ml for 30 hours, K3-CHO): 86 kDa fragment was generated

Molecule: YVAD-chloromethylketone
- Effect on apoptosis-associated Parkin cleavage (51 kDa Parkin to 38 kDa fragment) [2]: cleavage is abrogated
- Effect on apoptosis-associated Parkin cleavage (51 kDa Parkin to 38 kDa fragment) ([2]; listed as WAD-chloromethylketone): abrogate the cleavage

Molecule: OCCS [mercaptoethanol]
- Parkin cleavage after D126 following induced cell death ([1]; T160 immunoblotting as in example 3): followed by Parkin cleavage after D126

B1: D126E: human Parkin with Asp 126 substituted by Glu (SEQ ID NO: 4) (protein, listed as Homo sapiens)
chain: MIVFVRFNSSHGFPVEVDSDTSIFQLKEVVAKRQGVPADQLRVIFAGKELRNDWTVQNCDLDQQSIVHIVQRPWRKGQEMNATGGDDPRNAAGGCEREPQSLTRVDLSSSVLPGDSVGLAVILHTESRKDSPPAGSPAGRSIYNSFYVYCKGPCQRVQPGKLRVQCSTCRQATLTLTQGPSCWDDVLIPNRMSGECQSPHCPGTSAEFFFKCGAHPTSDKETSVALHLIATNSRNITCITCTDVRSPVLVFQCNSRHVICLDCFHLYCVTRLNDRQFVHDPQLGYSLPCVAGCPNSLIKELHHFRILGEEQYNRYQQYGAEECVLQMGGVLCPRPGCGAGLLPEPDQRKVTCEGGNGLGCGFAFCRECKEAYHEGECSAVFEASGTTTQAYRVDERAAEQARWEAASKETIKKTTKPCPRCHVPVEKNGGCMHMKCPQPQCRLEWCWNCGCEWNRVCMGDHWFDV
modifications: mat_peptide (1)..() Parkin with a D126E mutation
- Apoptosis-associated cleavage of mutated Parkin compared to wild type [3]: abrogated the cleavage; also recorded: drastically reduced parkin cleavage
- Survival of cells expressing the Parkin variant compared to wild type Parkin [4]: enhanced survival

B2: D115E: human Parkin with Asp 115 substituted by Glu (protein)
chain: B1 chain with D115E, E126D, S223P
- Apoptosis-associated cleavage of mutated Parkin compared to wild type [3]: cleavage as the WT parkin

B3: DD86, 87EE: human Parkin double mutant, Asp 86 and 87 substituted by Glu (protein)
chain: B1 chain with D86E, D87E, E126D, S223P
- Apoptosis-associated cleavage of mutated Parkin compared to wild type [3]: no significant effect; also recorded: cleavage as the WT parkin

B4: Parkin: wild type human Parkin protein (SEQ ID NO: 2) (protein, listed as Homo sapiens)
chain: B1 chain with E126D, S223P
modifications: mat_peptide (1)..() Native Parkin
- Protection against cell death by Parkin expression [5]: approximately 50%

B5: D105E: human Parkin Asp to Glu mutant (position printed as 105 and 106) (protein)
chain: B1 chain with D106E, E126D, S223P
- Apoptosis-associated cleavage of mutated Parkin compared to wild type [3]: cleavage as the WT parkin

B6: D130E: human Parkin with Asp 130 substituted by Glu (protein)
chain: B1 chain with E126D, D130E, S223P
- Apoptosis-associated cleavage of mutated Parkin compared to wild type [3]: no significant effect; also recorded: cleavage as the WT parkin

From patent US20040198650A1, “Means for inhibiting proteolytical processing of parkin” (priority 2001, published 2004)
